Experimental data as given in patent publication US20220251236A1 (Boehringer Ingelheim, published 2022).

Tests used:
[1] = target: T1, human DLL3 (endogenous, on SCLC cell lines NCI-H82 and SHP77 and in SCLC tissue) (human, UniProt Q9NYJ7 27-618); assay: flow cytometry on a DLL3-positive SCLC cell line (not named on the sheet), PE-conjugated anti-mouse secondary antibody
T1 construct: whole, on cells; also called SCLC cell lines expressing DLL3
T1 sequence (looked up): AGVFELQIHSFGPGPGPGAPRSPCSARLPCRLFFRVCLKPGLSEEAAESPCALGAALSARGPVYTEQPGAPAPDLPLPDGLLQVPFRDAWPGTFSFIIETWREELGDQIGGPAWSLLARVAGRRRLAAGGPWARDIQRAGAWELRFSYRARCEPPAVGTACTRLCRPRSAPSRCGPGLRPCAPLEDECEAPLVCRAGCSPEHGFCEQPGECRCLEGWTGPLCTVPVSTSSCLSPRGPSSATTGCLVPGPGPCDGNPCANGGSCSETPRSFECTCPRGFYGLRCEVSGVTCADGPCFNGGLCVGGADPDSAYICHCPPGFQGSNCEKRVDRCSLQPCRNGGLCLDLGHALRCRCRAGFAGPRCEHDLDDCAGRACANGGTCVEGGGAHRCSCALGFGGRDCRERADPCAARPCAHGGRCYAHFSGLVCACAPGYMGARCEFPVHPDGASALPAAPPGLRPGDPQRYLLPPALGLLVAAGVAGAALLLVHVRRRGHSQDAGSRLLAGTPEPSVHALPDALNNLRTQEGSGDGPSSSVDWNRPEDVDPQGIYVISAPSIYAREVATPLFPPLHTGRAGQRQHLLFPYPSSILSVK
Source text: Cells (T cells or human SCLC cells) were stained with increasing concentrations of anti-DLL3 antibody with increasing concentrations in FACS buffer (PBS/0.5% BSA/0.05% sodium azide).

Human DLL3-His = target: T2, Human DLL3-His (human, UniProt Q9NYJ7 27-492); assay: sandwich ELISA with ECL readout (MSD): anti-DLL3 antibody coated, recombinant DLL3 protein titrated; the concentration is that of DLL3 protein
T2 construct: also called huDLL3-His; hu DLL3
T2 sequence: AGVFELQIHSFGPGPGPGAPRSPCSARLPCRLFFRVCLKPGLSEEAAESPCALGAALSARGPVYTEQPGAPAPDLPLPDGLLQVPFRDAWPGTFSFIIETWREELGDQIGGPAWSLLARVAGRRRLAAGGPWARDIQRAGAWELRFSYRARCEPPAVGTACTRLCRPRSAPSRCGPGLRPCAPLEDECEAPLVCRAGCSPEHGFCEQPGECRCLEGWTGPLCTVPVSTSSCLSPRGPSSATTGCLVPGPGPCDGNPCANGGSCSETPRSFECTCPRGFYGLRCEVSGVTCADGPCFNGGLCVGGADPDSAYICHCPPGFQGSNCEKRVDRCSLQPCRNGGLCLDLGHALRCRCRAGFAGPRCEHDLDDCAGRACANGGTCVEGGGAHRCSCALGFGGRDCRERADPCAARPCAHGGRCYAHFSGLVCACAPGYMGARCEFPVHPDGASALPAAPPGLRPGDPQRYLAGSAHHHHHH
Method: Binding of antibodies was performed in an ELISA. In brief, anti-DLL3 antibodies were coated at a concentration of […] at 4° C. over night. After washing the plates were blocked with blocking buffer (Gibco, Gibco #043-90309A) for one hour at room temperature, followed by washing and incubation with recombinant DLL3 protein at increasing concentrations. For detection the bound DLL3 protein was incubated with a polyclonal anti-DLL3 antibody (R&D Systems, AB4315) followed by a SULFO-TAG labelled anti-goat antibody (R32AG-1) for one hour. The bound antibody was quantified by using a Read Buffer (MSD) in a Sector imager 6000 (MSD).

B1: anti-DLL3 antibody DLL3#6 (antibody, V domains shown)
VH: QVQLQESGPGLVKPSETLSLTCTVSGGSISSYFWSWIRQPAGKGLEWIGRIYTSGSTNYNPSLNSRLTMSVDTSKNQFSLKLSSVTAADTAVYYCARRGDWGGFDIWGQGTVVTVSS
VL: DIQLTQSPSFLSTSVGDRVTITCRASQDISNYFAWYQQKPGKAPKLLIYAASTLQSGVPSRFSGGGSGTEFTLTISSLQPEDFATYYCQQLNSYPYTFGQGTKLEIK
notes: detected with anti-mouse secondary antibody
- EC50 (read off the curve) [1]: ~400 pM

B2: anti-DLL3 antibody DLL3#1 (antibody, V domains shown)
VH: QVQLVQSGAEVKKPGASVKVSCKASGNTFTNYYMHWVRQAPGPGLEWMGIIDPSVGSKSYAQKFLGRVTIARDTSTSTVFLDLYSLRSEDTAVYFCARAGKRFGESYFDYWGQGTLVTVSS
VL: EIVLTQSPGTLSLSPGERATLSCRASQSVSSNFLVWYQQKPGQAPRPLIYGASTRASGIPDRFSGSGSGADFTLTISRLEPEDFALYYCQQYGDSPYTFGQGTTLEIK
notes: it was detected with anti-mouse reagents
- binding result [1]: binds

B3: anti-DLL3 antibody DLL3#4 (antibody, V domains shown)
VH: QVQLQQSGTELVKPGASVKLSCKASVYTFTSYFMYWVKQRPGHGLEWIGEISPTNGNSNLNERFKNKATLTVDKSSSTAYMQLSSLTSEDSAVYYCTRGGDGYLDYWGQGTTLTVSS
VL: DIVLTQSPASLAVSLGQRATISCRASKSVSSFGYSFMHWYQQKPGQPPKLLIYLASNLESGVPARFSGSGSGTDFTLNIHPVEEEDAATYYCQHSRELPWTFGGGTKLEIK
notes: as for B1
- EC50 (read off the curve) (Human DLL3-His): ~20 ng/mL
- EC50 (read off the curve) [1]: ~100 pM

B4: anti-DLL3 antibody DLL3#3 (antibody, V domains shown)
VH: QVQLVQSGAEVKKPGASVKVSCKASGYTFTSYYVHWVRQAPGQGLEWMVIINPGGGTTSYAQKFLGRVTMTRDTSTNTVYMELKSLRSEDTAVYYCARGEAVTGNYFYYGMDVWGQGTTVTVSS
VL: DIQMTQSPSAMSASVGDRVTITCRASQGISNYLVWFQQKPGKAPKRLIYAVSSLYSGVPSRFSGSGSGTEFTLTISSLQPEDFATYYCLQHDSYPYTFGQGTKLEIK
notes: as for B1
- EC50 (read off the curve) (Human DLL3-His): ~10 ng/mL

B5: anti-DLL3 antibody DLL3#2 (antibody, V domains shown)
VH: QVQLVQSGAEVKKPGASVKVSCKASGYTFTSYYMHWVRQAPGQGLEWMGIINPSGGSTSYAQKFQGRVTMTRDTSTSTVYMELSSLRSEDTAVYYCARGEAVGGNYYYYGMDVWGQGTTVTVSS
VL: DIQMTQSPSAMSASVGDRVTITCRASQGISNYLAWFQQKPGKVPEPLIYAASSLQSGVPSRFSGSGSVTEFTLTISSLQPEDFATYYCLQHNSSPYTFGQGTKLEIK
notes: as for B1
- binding result [1]: binds

B6: anti-DLL3 antibody DLL3#5 (antibody, V domains shown)
VH: QVQLVQSGAEVKKPGASVKVSCKASGFTFTGYYIHWVRQAPGQGLEWMGWINPNSGGTNYAQKFQGRVTMTRDSSINTAFMELSRLTSDDTAVYYCAAGWDYWGQGTLVTVSS
VL: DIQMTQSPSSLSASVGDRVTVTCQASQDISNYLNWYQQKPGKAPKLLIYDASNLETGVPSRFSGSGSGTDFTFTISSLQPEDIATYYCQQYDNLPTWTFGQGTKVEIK
notes: detected with anti-mouse reagents
- EC50 (read off the curve) (Human DLL3-His): ~10 ng/mL
- EC50 (read off the curve) [1]: ~500 pM
